Our source for the binding result and Kd values is US20160031999A1 (CSL, published 2016).

Experiment [1] has as its target T1, polypeptide of SEQ ID NO: 87 (human IL-11Rα 23-215 and mouse IL-11Rα 216-367, 8×HIS tag) (human and mouse (chimera)).
T1 chain: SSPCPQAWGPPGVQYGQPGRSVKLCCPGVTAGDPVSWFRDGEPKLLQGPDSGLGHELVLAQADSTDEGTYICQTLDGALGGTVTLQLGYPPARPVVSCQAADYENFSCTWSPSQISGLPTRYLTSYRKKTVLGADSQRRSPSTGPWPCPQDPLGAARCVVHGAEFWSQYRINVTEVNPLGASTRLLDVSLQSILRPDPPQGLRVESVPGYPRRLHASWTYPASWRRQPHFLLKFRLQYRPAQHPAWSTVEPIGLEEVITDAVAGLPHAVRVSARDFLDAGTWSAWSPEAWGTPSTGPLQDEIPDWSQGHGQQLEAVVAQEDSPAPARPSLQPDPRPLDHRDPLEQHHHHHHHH
As to the kind of experiment: Biacore, domain-swapped receptor; strong = KD of about 10 nM or lower. How it is done: (§1) Various soluble forms of IL-11R comprising regions of hIL-11R and mIL-11R were produced and comprise sequences as set forth in SEQ ID NOs: 3 and 86-90 and the binding of antibodies 8E2, 8D10 and 8E4 to those polypeptides was determined using Western blotting or Biacore analysis.
(§2) For Biacore analysis, anti-human was IgG immobilized on the sensor surface at ˜10,000-12,000 RU and each antibody was captured at between 0.2 μg/ml and 0.5 μg/ml every cycle for 120 seconds. IL-11 receptors were injected over captured antibodies at varying concentrations, ranging from 1 μM down to 2.5 nM, including injections of buffer blanks. Association was monitored for 3-5 minutes, dissociation was monitored for 3-10 minutes. Approximate affinities were determined by fitting binding curves of each interaction to a 1:1 Kinetic Model.
In general terms: In SPR one partner is held on a chip, and binding of the other changes the refractive index at the surface.

Experiment [2] deals with T2, polypeptide of SEQ ID NO: 88 (human IL-11Rα 23-318 and mouse IL-11Rα 319-367, 8×HIS tag) (human and mouse (chimera)).
T2 chain: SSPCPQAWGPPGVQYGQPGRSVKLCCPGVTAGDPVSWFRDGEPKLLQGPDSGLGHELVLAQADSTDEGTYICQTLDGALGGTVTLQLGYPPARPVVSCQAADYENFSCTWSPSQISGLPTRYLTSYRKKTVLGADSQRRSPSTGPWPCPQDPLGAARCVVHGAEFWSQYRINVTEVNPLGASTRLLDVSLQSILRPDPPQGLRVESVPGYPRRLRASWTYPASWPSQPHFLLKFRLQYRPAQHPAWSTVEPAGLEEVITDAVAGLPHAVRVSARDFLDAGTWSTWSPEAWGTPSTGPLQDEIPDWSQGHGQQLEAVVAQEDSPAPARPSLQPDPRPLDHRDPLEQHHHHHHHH
Described as above. How it is done:
as §1, §2

In experiment [3] the target is T3, polypeptide of SEQ ID NO: 85 (amino acids 23 to 318 of human IL-11Rα, serine at position 248, 8×HIS tag) (human, UniProt Q14626 23-318).
T3 construct: also called WT D1/2; truncated hIL-11R
T3 sequence: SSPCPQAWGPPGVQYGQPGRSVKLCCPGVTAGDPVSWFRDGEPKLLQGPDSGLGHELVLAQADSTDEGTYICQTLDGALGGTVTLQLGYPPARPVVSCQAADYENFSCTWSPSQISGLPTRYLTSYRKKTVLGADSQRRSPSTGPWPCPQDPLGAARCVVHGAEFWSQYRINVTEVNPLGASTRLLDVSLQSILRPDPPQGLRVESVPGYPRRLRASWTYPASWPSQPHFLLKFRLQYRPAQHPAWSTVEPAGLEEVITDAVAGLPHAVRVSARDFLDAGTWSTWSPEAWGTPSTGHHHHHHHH
Briefly: Biacore, antibody captured on anti-human IgG Fc, receptor injected; mean ± SE. How it is done: (§3) Various point mutants of soluble forms of IL-11R were produced in which amino acids from mIL-11 were introduced into a soluble form of hIL-11 (SEQ ID NO: 85) (see Table 5 for positions of mutations relative to SEQ ID NO: 1 and for reference to the SEQ ID NO: of each polypeptide) and the binding of antibodies to those polypeptides or to polypeptides of SEQ ID NO: 3 or SEQ ID NO: 85 was determined using Biacore analysis or FACS.
(§4) Anti human IgG Fc specific antibody was chemically immobilized on a CM5 chip to ˜9000 RU. Antibodies were captured at about 0.3-1 μg/ml for 120 seconds on 2 spots in each flow cell. Adjacent spots consisting of only anti human IgG were used as a reference. IL-11 receptors were injected over the captured antibodies and reference spots at 40, 10, 5 and 2.5 nM in duplicate. Blank injections of buffer only were also performed in duplicate. Injection was performed for 3 minutes and dissociation monitored for a further 5 minutes.

Experiment [4] concerns the target T4, A178S mutant of soluble human IL-11Rα (SEQ ID NO: 99) (human, UniProt Q14626 23-318).
T4 sequence: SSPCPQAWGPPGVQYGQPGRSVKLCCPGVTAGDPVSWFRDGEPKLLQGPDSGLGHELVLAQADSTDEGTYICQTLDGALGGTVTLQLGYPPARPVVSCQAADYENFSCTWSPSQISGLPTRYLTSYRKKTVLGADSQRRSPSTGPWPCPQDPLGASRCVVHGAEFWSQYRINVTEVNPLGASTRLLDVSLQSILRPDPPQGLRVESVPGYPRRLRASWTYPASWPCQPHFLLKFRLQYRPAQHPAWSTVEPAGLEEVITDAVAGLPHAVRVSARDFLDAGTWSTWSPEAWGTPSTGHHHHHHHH
As to the kind of experiment: Biacore, antibody captured on anti-human IgG Fc, receptor injected; mean ± SE, N = 4. How it is done: as §3, §4

Experiment [5] has as its target T5, polypeptide of SEQ ID NO: 3 (amino acids 23 to 363 of human IL-11Rα, serine at position 248, 8×HIS tag) (human, UniProt Q14626 23-363).
T5 construct: also called WT F/L
T5 sequence: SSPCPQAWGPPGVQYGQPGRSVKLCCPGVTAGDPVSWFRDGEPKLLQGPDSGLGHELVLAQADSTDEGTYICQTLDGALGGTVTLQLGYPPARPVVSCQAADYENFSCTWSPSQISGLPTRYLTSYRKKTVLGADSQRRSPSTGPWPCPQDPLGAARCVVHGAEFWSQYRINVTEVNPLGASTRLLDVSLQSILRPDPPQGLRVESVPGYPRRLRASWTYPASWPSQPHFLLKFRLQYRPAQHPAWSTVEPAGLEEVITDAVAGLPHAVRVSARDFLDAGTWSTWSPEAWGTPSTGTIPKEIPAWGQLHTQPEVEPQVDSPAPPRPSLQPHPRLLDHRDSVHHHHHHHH
As to the kind of experiment: Biacore, antibody captured on anti-human IgG Fc, receptor injected; mean ± SE, N = 3. How it is done:
as §3, §4

As a reminder, the Kd is the constant that tells how readily two partners part at equilibrium. Read a low Kd as tighter binding.

B1: antibody 8E4 (antibody, human IgG4 S228P, lambda, V domains shown)
VH: EVQLLESGGGLVQPGGSLRLSCAASGFTFSWYFMGWVRQAPGKGLEWVSYIYPSGGSTGYADSVKGRFTISRDNSKNTLYLQMHSLRAEDTAVYYCARDEGYCSSTSCYFDAFDIWGQGTMVTVSS
VL: QSALTQPPSASGSPGQSVAISCTGTSSDVGGYNFVSWYQQHPGKAPKLLIYEVTKRPSGVPDRFSGSKAGNTASLTVSGLQAEDEADYYCSSYGGSNNAGVFGTGTKVTVLG
Take B1: the binding result in experiment [1] and in experiment [2] was “binds” throughout. Moreover, the figures for the Kd in experiment [3], in experiment [4] and in experiment [5] were 2.78 nM, 2.63 nM and 4 nM, respectively.

B2: antibody 8D10 (antibody, human IgG4 S228P, kappa, V domains shown)
VH: EVQLLESGGGLVQPGGSLRLSCAASGFTFSRYMMGWVRQAPGKGLEWVSSIVPSGGITIYADSVKGRFTISRDNSKNTLYLQMNSLRAEDTAVYYCARDHMGIVATDWGQGTLVTVSS
VL: DIQMTQSPSSLSASVGDRVTITCQASQDITNYLNWYLHKPGKAPKLLIYDASNLQTGVPSRFSGSGSGTDFTFTITSLQPEDFGTYYCQQYDTLHPSFGPGTTVDIKR
As to B2, the binding result in experiment [1] and in experiment [2] was “binds” in each case. Moreover, the Kd turned out to be 0.58 nM in experiment [3], 0.6 nM in experiment [4] and 1 nM in experiment [5].
